In assay [1] the target is T1, ^ΔNVAMP7-^ΔNsyntaxin1-SNAP25 core complex (rat, UniProt Q9JHW5 119-190; P32851 191-265; P60881-2 1-206, S249C | K253C).
T1 construct: VAMP7, rat, residues 119-190; syntaxin1A, rat, residues 191-265; the construct's printed name also holds C145S, which lies outside 191-265; SNAP25A, rat; also called ^ΔNSNARE complex; core of the VAMP7-syntaxin1-SNAP25 SNARE complex (without the N-terminal domains); source: E. coli, coexpressed, purified; copies: + +
The assay can be described thus: SEC-MALS; 30 μM SNARE complex and 30 μM α-SNAP (1:1 mixture); WTC-030S5 column; 20 mM Tris-HCl (pH 8.0), 50 mM NaCl, 0.1 mM TCEP. Conditions: both partners purified.

Assay [2] has as its target T2, VAMP7-syntaxin1-SNAP25 ternary SNARE complex, labeled with Oregon Green 488 (rat, UniProt Q9JHW5 1-190; P32851 1-265; P60881-2 1-206, C21S | C56V | C145S | S249C | K253C, Oregon Green 488 (maleimide) on cysteines; the labeled endogenous and mutant cysteines are shown in Figure 1A).
T2 construct: VAMP7, rat, residues 1-190; syntaxin1A, rat, residues 1-265; SNAP25A, rat; Removal of the His6 tag is told only for α-SNAP; also called VAMP7(1–190)-C21S/C56V-syntaxin1A(1–265)-C145S/S249C/K253C-SNAP25A; source: E. coli BL21(DE3), coexpressed, purified (Ni-NTA, Superdex 200); copies: + +
Nature of the assay: other fluorescence titration; change in Oregon Green 488 fluorescence intensity of the labeled SNARE complex as a function of α-SNAP concentration; fit y = Fmax·x/(KD + x); three independent experiments. Conditions: both partners purified.

T1 sequence (Q9JHW5 119-190, stated change not applied, chain 1 of 3): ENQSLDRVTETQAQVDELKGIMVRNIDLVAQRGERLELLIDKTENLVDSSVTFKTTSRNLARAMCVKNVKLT
T1 sequence (P32851 191-265 S249C/K253C, chain 2 of 3): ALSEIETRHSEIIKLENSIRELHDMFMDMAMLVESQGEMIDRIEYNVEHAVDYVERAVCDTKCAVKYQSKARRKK
T1 sequence (P60881 other isoform, or with tags, fused parts or gaps S249C | K253C | S249C | K253C | mutant, chain 3 of 3): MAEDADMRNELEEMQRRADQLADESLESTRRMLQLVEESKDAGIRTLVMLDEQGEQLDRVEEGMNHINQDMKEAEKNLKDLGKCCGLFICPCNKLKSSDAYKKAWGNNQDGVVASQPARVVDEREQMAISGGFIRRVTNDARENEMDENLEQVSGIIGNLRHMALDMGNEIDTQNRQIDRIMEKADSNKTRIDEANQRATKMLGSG
T2 sequence (Q9JHW5 1-190 C21S/C56V, chain 1 of 3): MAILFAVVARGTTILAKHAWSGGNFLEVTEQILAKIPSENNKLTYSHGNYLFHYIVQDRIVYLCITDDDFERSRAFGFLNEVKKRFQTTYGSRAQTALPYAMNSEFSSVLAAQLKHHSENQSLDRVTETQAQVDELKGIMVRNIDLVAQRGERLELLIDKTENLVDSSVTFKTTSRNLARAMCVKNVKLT
T2 sequence (P32851 1-265 C145S/S249C/K253C, chain 2 of 3): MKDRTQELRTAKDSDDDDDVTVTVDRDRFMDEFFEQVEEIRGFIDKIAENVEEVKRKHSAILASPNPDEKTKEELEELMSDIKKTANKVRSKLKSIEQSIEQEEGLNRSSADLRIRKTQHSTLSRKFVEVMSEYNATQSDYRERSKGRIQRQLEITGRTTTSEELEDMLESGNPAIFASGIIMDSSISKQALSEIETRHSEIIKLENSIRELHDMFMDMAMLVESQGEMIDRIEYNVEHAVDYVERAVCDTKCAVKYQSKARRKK
T2 sequence (P60881 other isoform, or with tags, fused parts or gaps with the stated changes, chain 3 of 3): as the sequence (P60881 other isoform, or with tags, fused parts or gaps S249C | K253C | S249C | K253C | mutant, chain 3 of 3) above

B1: α-soluble NSF attachment protein (α-SNAP) (natural protein, rat, UniProt P54921 1-295, looked up)
chain: MDTSGKQAEAMALLAEAERKVKNSQSFFSGLFGGSSKIEEACEIYARAANMFKMAKNWSAAGNAFCQAAQLHLQLQSKHDAATCFVDAGNAFKKADPQEAINCLMRAIEIYTDMGRFTIAAKHHISIAEIYETELVDVEKAIAHYEQSADYYKGEESNSSANKCLLKVAGYAAQLEQYQKAIDIYEQVGTSAMDSPLLKYSAKDYFFKAALCHFCIDMLNAKLAVQKYEELFPAFSDSRECKLMKKLLEAHEEQNVDSYTESVKEYDSISRLDQWLTTMLLRIKKTIQGDEEDLR
notes: α-SNAP, rat; His6 tag removed with tobacco etch virus protease; source: E. coli BL21(DE3), purified (Ni-NTA, Superdex 200)
For the molecule B1, in assay [1], the “stoichiometry N” value is 1 α-SNAP per SNARE complex. Also, in assay [2], the binding result is “binds”.

The values are drawn from PMC3750193, “Disassembly of All SNARE Complexes by N-Ethylmaleimide-sensitive Factor (NSF) Is Initiated by a Conserved 1:1 Interaction between α-Soluble NSF Attachment Protein (SNAP) and SNARE Complex*^([image sbox.jpg])” (The Journal of Biological Chemistry, 2013).
